Laboratory results as given in paper PMC6823436, “Phase separation of Polo-like kinase 4 by autoactivation and clustering drives centriole biogenesis” (Nature Communications, 2019).

Target: the molecule itself
Assay: SEC; Superdex 75 Increase 10/300 GL; 20 mM Tris-HCl pH 7.5, 500 mM NaCl, 5% glycerol, 0.5 mM TCEP; 0.5 mL/min; BSA run for comparison; dimeric state in solution

B1: CPB CP (581–808), cryptic polo-box of Plk4 with the CP mutations (domain or fragment, human, UniProt O00444 581-808, looked up)
chain: GYQNRTLRSITSPLVAHRLKPIRQKTKKAVVSILDSEEVCVELVKEYASQEYVKEVLQISSDGNTITIYYPNGGRGFPLADRPPSPTDNISRYSFDNLPEKYWRKYQYASRFVQLVREKEPKIEYFDRYAKCILMENSPGADFEVWFYDGVKIHKTEDFIQVIEKTGKSYTLKSESEVNSLKEEIKMYMDHANEGHRICLALESIISEEERKTRSAPFFPIIIGRKPG
notes: PDB 6N46 is the His6-tagged form of the same limits; PDB 4N9J is the wild-type apo-CPB; also called CBP CP; source: E. coli Rosetta, purified (HisTrap, SEC, TEV cleavage, HisTrap and MBPTrap, SEC)
Question: Does B1 bind?
Answer: binds
